Values quoted from earlier work as cited in publication PMC11402941.

What was measured:
VSIG3 (Homo sapiens) = VSIG3 (Homo sapiens) (UniProt Q5DX21)
PSGL-1 (Homo sapiens) = PSGL-1 (Homo sapiens) (UniProt Q14242)
Sequence of UniProt Q14242 (Q14242 42-320): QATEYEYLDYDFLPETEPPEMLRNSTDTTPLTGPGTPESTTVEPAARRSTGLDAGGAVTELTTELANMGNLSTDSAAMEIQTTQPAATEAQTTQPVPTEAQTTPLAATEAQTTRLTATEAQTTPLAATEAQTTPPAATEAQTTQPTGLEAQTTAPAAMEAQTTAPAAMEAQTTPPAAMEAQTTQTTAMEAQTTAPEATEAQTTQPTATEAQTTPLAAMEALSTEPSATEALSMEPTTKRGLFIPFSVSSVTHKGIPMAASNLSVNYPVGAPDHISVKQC

Sequence of UniProt Q5DX21 (Q5DX21 23-241): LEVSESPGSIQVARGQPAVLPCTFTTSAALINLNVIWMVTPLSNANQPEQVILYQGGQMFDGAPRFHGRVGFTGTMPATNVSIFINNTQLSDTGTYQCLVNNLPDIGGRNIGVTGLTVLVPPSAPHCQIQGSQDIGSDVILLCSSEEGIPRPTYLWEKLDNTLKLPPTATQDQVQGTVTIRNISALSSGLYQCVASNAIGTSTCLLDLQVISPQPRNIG

Kd (VSIG3 (Homo sapiens)): 0.08 µM
Kd (PSGL-1 (Homo sapiens)): 0.004 µM
Substance: VISTA (from UniProt Q9H7M9)
